# US20230141177A1
# Residue numbers refer to the chain shown, from its start. Names may count otherwise.
# B1: parental antibody, PMN310 humanized antibody variant VH2/Vk5 (human IgG4 S241P / kappa) (antibody, V domains shown)
# VH: QVQLVQSGAEVKKPGASVKMSCKASGYSFTSYWINWVKQRPGQGLEWIGDVHPGRGVSTYNAKFKSRATLTLDTSISTAYMELSSLRSEDTAVYYCSRSHGNTYWFFDVWGQGTTVTVSS
# VL: DVLMTQSPLSLPVTLGQPASISCRSSQSIVHSNGNTYLEWYQQRPGQSPRLLIYKVSNRFSGVPDRFSGSGSGTDFTLKISRVEAEDVGVYYCFQGSHVPFTFGQGTKLEIKR
# B2: Clone 4 (affinity matured VH with parental Vk, human IgG4 S241P / kappa) (antibody, V domains shown)
# VH: B1 VH with S97A, S99V, H100S, G101P, N102T, T103G
# VL: B1 VL
# B3: Clone 5 (affinity matured VH with parental Vk, human IgG4 S241P / kappa) (antibody, V domains shown)
# VH: B1 VH with S97A, S99G, H100A, G101L, N102S, T103P
# VL: B1 VL
# B4: Clone 14 (affinity matured VH with parental Vk, human IgG4 S241P / kappa) (antibody, V domains shown)
# VH: B1 VH with S97A, R98K, H100D, G101A, N102S, T103G
# VL: B1 VL
# Target: Aβ aggregates in the high molecular weight (HMW) fraction of pooled soluble human AD brain extract (>70 kDa to ~700 kDa) (human) (UniProt P05067)
# Test: SPR, immobilized antibody, brain extract fraction at 100 µg/ml injected; Study 1
row,Binding to HMW (BRU),Binder
1,27,B1
2,21,B2
3,15,B3
4,16,B4

# Target: AβO in the low molecular weight (LMW) fraction of pooled soluble human AD brain extract (~8 kDa to ~70 kDa) (human) (UniProt P05067)
# Test: as above
row,Binding to LMW (BRU),Binder
1,27,B1
2,28,B2
3,15,B3
4,18,B4

# Target: AβO in the low molecular weight (LMW) fraction of pooled soluble human AD brain extract (~8 kDa to ~70 kDa) (human) (UniProt P05067)
# Test: SPR; BRU on LMW fraction divided by BRU on HMW fraction; Study 1
row,LMW/HMW ratio,Binder
1,1,B1
2,1.32,B2
3,1,B3
4,1.1,B4

# Target: Aβ aggregates in the high molecular weight (HMW) fraction of pooled soluble human AD brain extract (>70 kDa to ~700 kDa) (human) (UniProt P05067)
# Test: SPR, immobilized antibody, brain extract fraction at 100 µg/ml injected; Study 2
row,Binding to HMW (BRU),Binder
1,13.5,B1
2,11.2,B2
3,6.57,B3
4,7.55,B4

# Target: AβO in the low molecular weight (LMW) fraction of pooled soluble human AD brain extract (~8 kDa to ~70 kDa) (human) (UniProt P05067)
# Test: as above
row,Binding to LMW (BRU),Binder
1,17.7,B1
2,17.3,B2
3,9.42,B3
4,11.1,B4

# Target: AβO in the low molecular weight (LMW) fraction of pooled soluble human AD brain extract (~8 kDa to ~70 kDa) (human) (UniProt P05067)
# Test: SPR; BRU on LMW fraction divided by BRU on HMW fraction; Study 3
row,LMW/HMW ratio,Binder
1,1.52,B1
2,1.54,B2
3,1.2,B3
4,1.45,B4

# Target: Aβ aggregates in the high molecular weight (HMW) fraction of pooled soluble human AD brain extract (>70 kDa to ~700 kDa) (human) (UniProt P05067)
# Test: SPR, immobilized antibody, brain extract fraction at 100 µg/ml injected; Study 3
row,Binding to HMW (BRU),Binder
1,5,B1
2,6.77,B2
3,7.88,B3
4,4.38,B4

# Target: AβO in the low molecular weight (LMW) fraction of pooled soluble human AD brain extract (~8 kDa to ~70 kDa) (human) (UniProt P05067)
# Test: as above
row,Binding to LMW (BRU),Binder
1,7.6,B1
2,10.1,B2
3,9.45,B3
4,6.34,B4

# Target: AβO in the low molecular weight (LMW) fraction of pooled soluble human AD brain extract (~8 kDa to ~70 kDa) (human) (UniProt P05067)
# Test: SPR; BRU on LMW fraction divided by BRU on HMW fraction; Study 2
row,LMW/HMW ratio,Binder
1,1.31,B1
2,1.55,B2
3,1.43,B3
4,1.47,B4
